Source: patent US20250382359A1 (BYOMASS, published 2025)

T1: Human BMP10 (human, UniProt O95393 317-424)
T1 sequence (looked up): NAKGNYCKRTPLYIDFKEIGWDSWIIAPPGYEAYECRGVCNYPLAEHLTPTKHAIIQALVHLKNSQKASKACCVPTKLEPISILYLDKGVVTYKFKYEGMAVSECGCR

T2: GDNF (UniProt P39905 78-211)
T2 sequence (looked up): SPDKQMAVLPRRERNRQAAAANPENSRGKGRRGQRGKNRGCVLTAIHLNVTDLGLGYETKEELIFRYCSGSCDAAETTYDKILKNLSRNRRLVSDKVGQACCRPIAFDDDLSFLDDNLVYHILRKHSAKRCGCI

T3: GDF10 (UniProt P55107 369-478)
T3 sequence (looked up): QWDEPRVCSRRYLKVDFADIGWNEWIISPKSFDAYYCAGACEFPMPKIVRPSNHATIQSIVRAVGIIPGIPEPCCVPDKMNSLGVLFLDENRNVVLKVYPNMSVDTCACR

T4: Human Activin B (human, UniProt P09529 293-407)
T4 sequence (looked up): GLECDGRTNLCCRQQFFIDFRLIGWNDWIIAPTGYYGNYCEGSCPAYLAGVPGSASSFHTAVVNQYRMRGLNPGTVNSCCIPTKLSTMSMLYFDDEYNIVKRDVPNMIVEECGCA

T5: Human BMP9 (human, UniProt Q9UK05 320-429)
T5 sequence (looked up): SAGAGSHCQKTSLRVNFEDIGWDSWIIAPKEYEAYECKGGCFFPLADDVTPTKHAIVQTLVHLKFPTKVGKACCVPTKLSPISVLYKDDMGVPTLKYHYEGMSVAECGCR

T6: Human Activin A Fc (human, UniProt P08476 311-426)
T6 construct: not shown: Fc part
T6 sequence (looked up): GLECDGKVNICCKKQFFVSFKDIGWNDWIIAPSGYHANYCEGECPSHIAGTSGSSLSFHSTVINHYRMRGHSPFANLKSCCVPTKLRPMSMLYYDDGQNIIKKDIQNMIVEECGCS

T7: GDF15 (ligand used in the GFRAL/RET cell assays) (UniProt Q99988 197-308, limits assumed)
T7 sequence (looked up): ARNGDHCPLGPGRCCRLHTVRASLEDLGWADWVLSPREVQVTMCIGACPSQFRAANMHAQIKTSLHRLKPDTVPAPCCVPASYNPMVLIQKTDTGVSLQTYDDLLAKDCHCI

T8: Human GDF15 Fc (human, UniProt Q99988 195-308, limits assumed, biotinylated (EZ-Link Sulfo-NHS-Biotinylation Kit) in the SPR assay)
T8 construct: also called human GDF15-Fc fusion; biotinylated Human GDF15 Fc; not shown: Fc part
T8 sequence: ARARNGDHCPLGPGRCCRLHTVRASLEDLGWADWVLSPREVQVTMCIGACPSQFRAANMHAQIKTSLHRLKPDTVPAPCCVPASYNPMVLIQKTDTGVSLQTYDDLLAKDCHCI

T9: Cyno GDF15 Fc (cyno, UniProt G7PWZ3 193-308, limits assumed)
T9 construct: also called cyno GDF15-Fc fusion; not shown: Fc part
T9 sequence: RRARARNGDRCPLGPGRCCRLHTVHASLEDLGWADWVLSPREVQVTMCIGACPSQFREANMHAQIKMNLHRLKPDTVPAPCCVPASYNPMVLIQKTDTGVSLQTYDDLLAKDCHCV


How the values were obtained:
Human BMP10 = target: T1, Human BMP10; test: BLI Octet; IgG on sensor
GDNF = target: T2, GDNF; test: BLI Octet; IgG on sensor
GDF8 = GDF8 (UniProt O14793 267-375); test: BLI Octet; IgG on sensor
GDF10 = target: T3, GDF10; test: BLI Octet; IgG on sensor
Human Activin B = target: T4, Human Activin B; test: BLI Octet; IgG on sensor
GDF11 = target: T10, GDF11 (UniProt O95390 299-407); test: BLI Octet; IgG on sensor
T10 construct: Also used as ligand in the Activin 2B receptor/SMAD reporter assay
T10 sequence (O95390 299-407 limits assumed): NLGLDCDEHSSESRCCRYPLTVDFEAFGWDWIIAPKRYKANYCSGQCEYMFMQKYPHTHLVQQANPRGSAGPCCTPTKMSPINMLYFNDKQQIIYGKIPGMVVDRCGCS

Human BMP9 = target: T5, Human BMP9; test: BLI Octet; IgG on sensor
Human Activin A Fc = target: T6, Human Activin A Fc; test: BLI Octet; IgG on sensor
[1] = target: T7, GDF15 (ligand used in the GFRAL/RET …); test: cell-based or functional assay
Human GDF15 Fc [2] = target: T8, Human GDF15 Fc; test: BLI Octet; IgG on sensor, 100 nM antigen (avid)
Description: Briefly, ForteBio affinity measurements were performed by loading IgGs on-line onto AHC sensors. Sensors were equilibrated off-line in assay buffer for 30 min and then monitored on-line for 60 seconds for baseline establishment. Sensors with loaded IgGs were exposed to 100 nM antigen for 3 minutes, and afterwards were transferred to assay buffer for 3 min for off-rate measurement. All kinetics were analyzed using the 1:1 binding model.

Human GDF15 Fc [3] = target: T8, Human GDF15 Fc; test: BLI Octet; antigen on sensor, 100 nM Fab (monovalent)
Cyno GDF15 Fc = target: T9, Cyno GDF15 Fc; test: as above
Human GDF15 Fc [4] = target: T8, Human GDF15 Fc; test: SPR Biacore 8K; biotinylated antigen captured, Fab analyte
Description: Kinetic analysis was conducted at 25° C. in HBS-EP+running buffer (10 mM HEPES pH 7.4, 150 mM NaCl, 3 mM EDTA, 0.05% Surfactant P20) using a Biacore 8K optical biosensor (Cytiva, Marlborough, MA). The sample compartment was maintained at 10° C. for the duration of the experiment. The Biacore 8K can analyze up to 8 separate interactions in a single cycle.
Each experiment cycle began with an injection (300 s at 2 μL/min) overflow cells 1 and 2 of a 1:100 solution of biotin CAPture reagent (Cytiva) in running buffer. This was followed by an injection (45 s at 10.0 μL/min) of biotinylated human GDF15 (5 nM) overflow cell 2. […] The dissociation of the antibodies were monitored for 3420 s. Finally, an injection (120 s at 10 μL/min) of regeneration solution (6 M Guanidine-HCl in 0.25 M NaOH) overflow cells 1 and 2 prepared the sensor surface for another cycle. Several blank buffer samples were injected (300 s at 30 μL/min) overflow cells 1 and 2 throughout the duration of the experiment and used for reference surface subtraction—each were monitored for the same amount of dissociation time (3420 s) and regenerated under the same conditions as those for the Fab sample injections.

Binder	binding result (Human BMP10)	binding result (GDNF)	binding result (GDF8)	binding result (GDF10)	binding result (Human Activin B)	binding result (GDF11)	binding result (Human BMP9)	binding result (Human Activin A Fc)	GDF15-GFRAL RET pERK IC50 (pM) [1] [pM]	GDF15-GFRAL-RET Luciferase IC50 (pM) [1] [pM]	Kd (Human GDF15 Fc [2]) [nM]	Kd (Human GDF15 Fc [3]) [nM]	Kd (Cyno GDF15 Fc) [nM]	GDF15 GFRAL RET pERK Fab IC50 pM [1] [pM]	Kd (Human GDF15 Fc [4]) [nM]	koff (Human GDF15 Fc [4]) [s⁻¹]	kon (Human GDF15 Fc [4]) [M⁻¹ s⁻¹]
GDF15 antibody agent Clone H, IgG (antibody, V domains shown) VH: QVQLVQSGAEVKKPGSSVKVSCKASGGTFSSYYISWVRQAPGQGLEWMGGIAPISGTASYAQKFQGRVTITADESTSTAYMELSSLRSEDTAVYYCARGLAYDGYFDLWGRGTLVTVSS VL: not shown	no binding (tested: 100 nM)	no binding (tested: 100 nM)	no binding (tested: 100 nM)	no binding (tested: 100 nM)	no binding (tested: 100 nM)	no binding (tested: 100 nM)	no binding (tested: 100 nM)	no binding (tested: 100 nM)	254	200	0.235						
GDF15 antibody agent Clone E, IgG (antibody, V domains shown) VH: QVQLVQSGAEVKKPGASVKVSCKASGYTFTSYGINWVRQAPGQGLEWMGWITAYSGDTNYAQKLQGRVTMTTDTSTSTAYMELRSLRSDDTAVYYCARGPGQYADVDVWGQGTMVTVSS VL: DIQMTQSPSSVSASVGDRVTITCRASQGISSWLAWYQQKPGKAPKLLIYAASSLQSGVPSRFSGSGSGTDFTLTISSLQPEDFATYYCQQANSFPITFGGGTKVEIKR	no binding (tested: 100 nM)	no binding (tested: 100 nM)	no binding (tested: 100 nM)	no binding (tested: 100 nM)	no binding (tested: 100 nM)	no binding (tested: 100 nM)	no binding (tested: 100 nM)	no binding (tested: 100 nM)	35	190	0.278						
GDF15 antibody agent Clone O, IgG (antibody, V domains shown) VH: QVQLVQSGAEVKKPGATVKVSCKASGYTFDSLGMSWVRQAPGQGLEWMGYISTYSGDTVYAQKLQGRVTMTTDTSTSTAYMELRSLRSDDTAVYYCARESGQQVSALDPWGQGTLVTVSS VL: DIQMTQSPSSVSASVGDRVTITCRASQGISRWLAWYQQKPGKAPKLLIYAASSLQSGVPSRFSGSGSGTDFTLTISSLQPEDFATYYCQQGASFPLTFGGGTKVEIKR	no binding (tested: 100 nM)	no binding (tested: 100 nM)	no binding (tested: 100 nM)		no binding (tested: 100 nM)	no binding (tested: 100 nM)	no binding (tested: 100 nM)	no binding (tested: 100 nM)		150	0.279						
GDF15 antibody agent Clone J, Fab (Fab, V domains shown, Fab; CH1 and CL of the Fab not specified; also called Fab of Clone J) VH: QVQLVQSGAEVKKPGASVKVSCKASGYTFTSYGINWVRQAPGQGLEWMGWIDAYSGSTNYAQKLQGRVTMTTDTSTSTAYMELRSLRSDDTAVYYCARGPGQYADVDVWGQGTMVTVSS VL: DIQMTQSPSSVSASVGDRVTITCRASQGISSWLAWYQQKPGKAPKLLIYAASSLQSGVPSRFSGSGSGTDFTLTISSLQPEDFATYYCQQANSFPITFGGGTKVEIK												1.28	0.769	75.1	0.0884	0.000404	4.57e+06

Other lines, results leading:

binding result (Human BMP10)	binding result (GDNF)	binding result (GDF8)	binding result (GDF10)	binding result (Human Activin B)	binding result (GDF11)	binding result (Human BMP9)	binding result (Human Activin A Fc)	GDF15-GFRAL RET pERK IC50 (pM) [1] [pM]	GDF15-GFRAL-RET Luciferase IC50 (pM) [1] [pM]	Kd (Human GDF15 Fc [2]) [nM]	Kd (Human GDF15 Fc [3]) [nM]	Kd (Cyno GDF15 Fc) [nM]	GDF15 GFRAL RET pERK Fab IC50 pM [1] [pM]	Kd (Human GDF15 Fc [4]) [nM]	koff (Human GDF15 Fc [4]) [s⁻¹]	kon (Human GDF15 Fc [4]) [M⁻¹ s⁻¹]	Binder
no binding (tested: 100 nM)	no binding (tested: 100 nM)	no binding (tested: 100 nM)	no binding (tested: 100 nM)	no binding (tested: 100 nM)	no binding (tested: 100 nM)	no binding (tested: 100 nM)	no binding (tested: 100 nM)										GDF15 antibody agent Clone S, IgG (antibody, V domains shown) VH: QVQLVQSGAEVKKPGASVKVSCKASGYTFTSYGINWVRQAPGQGLEWMGWITAYSGDTNYAQKLQGRVTMTTDTSTSTAYMELRSLRSDDTAVYYCARGPGQYADVDVWGQGTMVTVSS VL: DIQLTQSPSSVSASVGDRVTITCRASQGISPWLAWYQQKPGKAPKLLIYAASSLQSGVPSRFSGSGSGTDFTLTISSLQPEDFATYYCQQANSFPITFGGGTKVEIKR
no binding (tested: 100 nM)	no binding (tested: 100 nM)	no binding (tested: 100 nM)	no binding (tested: 100 nM)	no binding (tested: 100 nM)	no binding (tested: 100 nM)	no binding (tested: 100 nM)	no binding (tested: 100 nM)										GDF15 antibody agent Clone T, IgG (antibody, V domains shown) VH: QVQLVQSGAEVKKPGASVKVSCKASGYTFTSYGINWVRQAPGQGLEWMGWITAYSGDTNYAQKLQGRVTMTTDTSTSTAYMELRSLRSDDTAVYYCARGPGQYADVDVWGQGTMVTVSS VL: DIQMTQSPSSVSASVGDRVTITCRASQGISSWLAWYQQKPGKAPKLLIYAASSLQSGVPSRFSGSGSGTDFTLTISSLQPEDFATYYCQQASQFPITFGGGTKVEIKR
no binding (tested: 100 nM)		no binding (tested: 100 nM)	no binding (tested: 100 nM)	no binding (tested: 100 nM)	no binding (tested: 100 nM)	no binding (tested: 100 nM)	no binding (tested: 100 nM)	35.6		0.274							GDF15 antibody agent Clone P, IgG (antibody, V domains shown) VH: QVQLVQSGAEVKKPGATVKVSCKASGYTFDSYGIHWVRQAPGQGLEWMGWITAYSGDTVYAQKLQGRVTMTTDTSTSTAYMELRSLRSDDTAVYYCARESGQTSSALGPWGQGTLVTVSS VL: DIQMTQSPSSVSASVGDRVTITCRASQGISRWLAWYQQKPGKAPKLLIYAASSLQSGVPSRFSGSGSGTDFTLTISSLQPEDFATYYCQQGASFPLTFGGGTKVEIKR
